Positions count from the first letter of the chain named. Names may count otherwise. “And” between values parts separate entries of the source, which are not always exact repeats. Equal entries are not always repeated. Where two headings read alike, the source gives them in different places.
B1: Os79 (protein, listed as Oryza sativa)
chain: MGSMSTPAASANGGQVLLLPFPAAQGHTNPMLQFGRRLAYHGLRPTLVTTRYVLSTTPPPGDPFRVAAISDGFDDASGMAALPDPGEYLRTLEAHGARTLAELLLSEARAGRPARVLVYDPHLPWARRVARAAGVATAAFLSQPCAVDLIYGEVCARRLALPVTPTDARGLYARGVLGVELGPDDVPPFVAAPELTPAFCEQSIEQFAGLEDDDDVLVNSFSDLEPKEAAYMESTWRAKTIGPSLPSFYLDDGRLRSNTAYGFNLFRSTVPCMEWLDKQPPRSVVLVSYGTVSTFDVAKLEELGNGLCNSGKPFLWVVRSNEEHKLSVQLRKKCEKRGLIVPFCPQLEVLAHKATGCFLSHCGWNSTLEAIVNGVPLVAMPHWADQPTISKYVESLWGMGVRVQLDKSGILQREEVERCIREVMDGDRKEDYRRNATRLMKKAKESMQEGGSSDKNIAEFAAKYSN
B2: Os79 H122A/L123A (protein, listed as Oryza sativa)
chain: B1 chain with H122A, L123A
B3: Os79 H122A/L123G (protein, listed as Oryza sativa)
chain: B1 chain with H122A, L123G
B4: Os79 A384S (protein, listed as Oryza sativa)
chain: B1 chain with A384S
B5: Os79 Q202A (protein, listed as Oryza sativa)
chain: B1 chain with Q202A

Experiments:
[1] = DON as substrate; Michlmayr, et al., 2015; cited from earlier work
[2] = format: biochemical, Fusarium
[3] = format: biochemical, Fusarium; remark: listed apart in the source

Molecule | Km [2] [µM] | KM value compared to WT Os79 [3] | other results
B1 |  |  | Km [1]: 230 µM; kcat [1]: 0.57 s⁻¹
B2 | 926 |  | kcat ([2]; 23° C.): 1.6 s⁻¹
B3 | 512 |  | Km ([3]; 23° C.): 2500 µM and 2510 µM
B4 |  | similar | 
B5 |  | no significant difference | 
